± gives the standard deviation of the averaged measurements.
System: Saccharomyces cerevisiae
Assay: protein stability index of tFT-peptide fusion (C-terminal peptide) (PSI (0-1 scale)); higher = more stable (slower turnover)
Details: temperature: 30 C
Procedure: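 MPS profiling in S. cerevisiae of the yeast C-terminome library: the last 12 aa of each annotated ORF are fused to the C-terminus of a sfGFP-mCherry timer, after a GGGS linker. Cells are FACS-sorted into 8 mCherry/sfGFP bins and deep-sequenced. PSI runs from 0 (unstable) to 1 (stable); wild type and das1Δ backgrounds, two technical replicates each.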

[1] = genetic background: das1 deletion

Row | Sequence | protein stability index [1] | protein stability index (genetic background: wild type)
1 | PKALFQSRDQEH [SIC1 C-terminal 12 aa] | 0.724 ± 0.022 | 0.702 ± 0.014
2 | PKIGILHNYLYL [YFT2 C-terminal 12 aa] | 0.698 ± 0.015 | 0.654 ± 0.0094
3 | PLLLVSHLNFAV [YIR020C-B C-terminal 12 aa] | 0.673 ± 0.0087 | 0.557 ± 0.033
4 | PLVHEVNGNEGK [DUF1 C-terminal 12 aa] | 0.68 ± 0.011 | 0.716 ± 0.076
5 | PNAIRGIKAKKA [COX7 C-terminal 12 aa] | 0.723 ± 0.011 | 0.675 ± 0.046
6 | PPVPEVPQEYTQ [TCB3 C-terminal 12 aa] | 0.722 ± 0.014 | 0.709 ± 0.041
7 | PSLRTRSSYTEE [FLR1 C-terminal 12 aa] | 0.6845 ± 0.0013 | 0.717 ± 0.043
8 | PTCETTIDIDRI [ZRG17 C-terminal 12 aa] | 0.687 ± 0.0087 | 0.65 ± 0.0076
9 | QDGIKEAASALA [INO80 C-terminal 12 aa] | 0.6794 ± 0.0025 | 0.665 ± 0.04
10 | QDKRSSQAIDVL [MMS21 C-terminal 12 aa] | 0.688 ± 0.015 | 0.6684 ± 0.0019
11 | QEGNRMCIWMSG [YFL015C C-terminal 12 aa] | 0.7 ± 0.0079 | 0.7 ± 0.011
12 | QEGTFKRLALPA [THI11 C-terminal 12 aa] | 0.639 ± 0.013 | 0.65426 ± 7.7e-05
13 | QEKEHKKHTVAR [CAJ1 C-terminal 12 aa] | 0.694 ± 0.011 | 0.672 ± 0.014
14 | QFLFTGRQKNYV [ERP2 C-terminal 12 aa] | 0.718 ± 0.017 | 0.718 ± 0.024
15 | QFWKNTPKVEQK [HOC1 C-terminal 12 aa] | 0.71 ± 0.024 | 0.695 ± 0.019
16 | QGALDSLLNGDV [DSK2 C-terminal 12 aa] | 0.685 ± 0.03 | 0.701 ± 0.019
17 | QGKAFYDRIKDL [RFS1 C-terminal 12 aa] | 0.683 ± 0.013 | 0.255 ± 0.025
18 | QGKVRLWKLNHY [UTP18 C-terminal 12 aa] | 0.7 ± 0.021 | 0.616 ± 0.025
19 | QIDKYMDLFTEG [PDH1 C-terminal 12 aa] | 0.7253 ± 0.0065 | 0.7354 ± 0.0063
20 | QIVEEWIVSTEA [CLB4 C-terminal 12 aa] | 0.623 ± 0.012 | 0.63 ± 0.023
21 | QIVNSTPVFTWC [LSB6 C-terminal 12 aa] | 0.653 ± 0.03 | 0.652 ± 0.034

Row | Sequence | protein stability index [1] | protein stability index (genetic background: wild type)
22 | QKRSCFFLANIH [YKL183C-A C-terminal 12 aa] | 0.661 ± 0.01 | 0.608 ± 0.027
23 | QLENKLEILKQK [SPC19 C-terminal 12 aa] | 0.699 ± 0.052 | 0.7259 ± 0.0072
24 | QLLNLLVKISQL [RFC2 C-terminal 12 aa] | 0.677 ± 0.032 | 0.18 ± 0.0089
25 | QNLLPAEKFTHN [CTR1 C-terminal 12 aa] | 0.6962 ± 0.0032 | 0.663 ± 0.0075
26 | QPKKKRKKSILH [SPP41 C-terminal 12 aa] | 0.749 ± 0.061 | 0.672 ± 0.05
27 | QPLLPCFFRRAV [YER147C-A C-terminal 12 aa] | 0.691 ± 0.011 | 0.4308 ± 0.0042
28 | QQLQSPTAPPTE [COX14 C-terminal 12 aa] | 0.727 ± 0.008 | 0.694 ± 0.038
29 | QQSESLPQQTTA [PIL1 C-terminal 12 aa] | 0.7046 ± 0.0038 | 0.737 ± 0.049
30 | QRIEGMLQLLTS [UTP15 C-terminal 12 aa] | 0.715 ± 0.025 | 0.64093 ± 0.00026
31 | QSLYKDATSHWL [GYP1 C-terminal 12 aa] | 0.7085 ± 0.0033 | 0.6825 ± 0.0036
32 | QSVAILDGKLVW [YGL258W-A C-terminal 12 aa] | 0.677 ± 0.015 | 0.65 ± 0.021
33 | QTLAPVPYETFI [RPL21A C-terminal 12 aa] | 0.718 ± 0.01 | 0.728 ± 0.013
34 | QVVAIIKKAYEY [ADH4 C-terminal 12 aa] | 0.707 ± 0.0071 | 0.679 ± 0.015
35 | QYKNKLAKNVVL [ARB1 C-terminal 12 aa] | 0.675 ± 0.012 | 0.6797 ± 0.0058
36 | QYTQRVGRPNFE [YGR226C C-terminal 12 aa] | 0.7078 ± 0.0012 | 0.674 ± 0.026
37 | RARPRTANRQHM [CCT2 C-terminal 12 aa] | 0.68332 ± 0.0002 | 0.6991 ± 0.005
38 | RDLLRDDKVALI [SLD5 C-terminal 12 aa] | 0.715 ± 0.023 | 0.6977 ± 0.0027
39 | REENAHLETYKV [HRK1 C-terminal 12 aa] | 0.7 ± 0.0068 | 0.694 ± 0.016
40 | RERALKVYKDAM [PHR1 C-terminal 12 aa] | 0.6824 ± 0.004 | 0.657 ± 0.0079
41 | RFQDGTSVVSIM [SMC2 C-terminal 12 aa] | 0.695 ± 0.011 | 0.6814 ± 0.006
42 | RHISRLSRLLCR [YGR273C C-terminal 12 aa] | 0.6071 ± 0.00082 | 0.621 ± 0.027

Row | Sequence | protein stability index [1] | protein stability index (genetic background: wild type)
43 | RINQDIKKVKLL [EMP46 C-terminal 12 aa] | 0.6957 ± 0.0047 | 0.145 ± 0.016
44 | RKAVDALRSLTN [ACK1 C-terminal 12 aa] | 0.719 ± 0.051 | 0.722 ± 0.045
45 | RKVVFERMETLE [MRPS16 C-terminal 12 aa] | 0.6857 ± 0.0044 | 0.683 ± 0.031
46 | RLGDVLRVCCPS [YFL065C C-terminal 12 aa] | 0.627 ± 0.0072 | 0.668 ± 0.0092
47 | RLKLDYSLIFPQ [MEI5 C-terminal 12 aa] | 0.7 ± 0.01 | 0.72 ± 0.038
48 | RLLSLAQPPVNF [YER165C-A C-terminal 12 aa] | 0.7584 ± 0.0037 | 0.703 ± 0.04
49 | RQCEDTNFGFKI [YDL242W C-terminal 12 aa] | 0.6949 ± 0.0057 | 0.688 ± 0.039
50 | RQEYKFKKSLLT [YKL131W C-terminal 12 aa] | 0.679 ± 0.018 | 0.625 ± 0.012
51 | RQMTSSFFLVFA [YDR118W-A C-terminal 12 aa] | 0.51187 ± 0.00022 | 0.508 ± 0.017
52 | RQNTLSLWRYRK [RPL15A C-terminal 12 aa] | 0.682 ± 0.0084 | 0.682 ± 0.039
53 | RQTRNQTKELDS [DPB11 C-terminal 12 aa] | 0.703 ± 0.033 | 0.691 ± 0.037
54 | RRGDMCDVKENI [PUS7 C-terminal 12 aa] | 0.6678 ± 0.0015 | 0.677 ± 0.031
55 | RRHYSNEDSSFL [APC9 C-terminal 12 aa] | 0.7169 ± 0.0022 | 0.689 ± 0.036
56 | RRPAVIKALRGE [URE2 C-terminal 12 aa] | 0.6904 ± 0.00095 | 0.693 ± 0.023
57 | RRSKKWYSFIFN [SCO2 C-terminal 12 aa] | 0.75 ± 0.018 | 0.731 ± 0.098
58 | RRTSSISTYLIL [YBL107W-A C-terminal 12 aa] | 0.735 ± 0.027 | 0.662 ± 0.043
59 | RRVKSLKTSKKH [PAL2 C-terminal 12 aa] | 0.72 ± 0.017 | 0.686 ± 0.0093
60 | RSIKRPELGLRV [STT3 C-terminal 12 aa] | 0.6814 ± 0.0017 | 0.6862 ± 0.0065
61 | RSLSSRSKECSK [NOC3 C-terminal 12 aa] | 0.71 ± 0.0075 | 0.672 ± 0.045
62 | RSTAQRGGYSAV [ATG27 C-terminal 12 aa] | 0.708 ± 0.0086 | 0.679 ± 0.025
63 | RVDGKIVVTPQI [RPC53 C-terminal 12 aa] | 0.7011 ± 0.0011 | 0.694 ± 0.012

Row | Sequence | protein stability index [1] | protein stability index (genetic background: wild type)
64 | RVFEFLEKQKRE [MRPL40 C-terminal 12 aa] | 0.722 ± 0.025 | 0.723 ± 0.028
65 | RVVDLIEYVAKA [TDH1 C-terminal 12 aa] | 0.6636 ± 0.0045 | 0.703 ± 0.055
66 | RYAKIHEKHVSA [ASN2 C-terminal 12 aa] | 0.7157 ± 0.0026 | 0.7183 ± 0.0066
67 | RYFCHLFRCSII [YDL022C-A C-terminal 12 aa] | 0.722 ± 0.04 | 0.654 ± 0.021
68 | SAITKNLLDDFV [RAV1 C-terminal 12 aa] | 0.735 ± 0.05 | 0.745 ± 0.066
69 | SAYMYTKRRFGF [MNR2 C-terminal 12 aa] | 0.712 ± 0.021 | 0.647 ± 0.017
70 | SDIFSFLDETYE [PHO92 C-terminal 12 aa] | 0.7281 ± 0.007 | 0.718 ± 0.02
71 | SENRFELAYFTS [YLR317W C-terminal 12 aa] | 0.728 ± 0.027 | 0.6901 ± 0.0013
72 | SEPVKQVLDSKE [NMA2 C-terminal 12 aa] | 0.749 ± 0.039 | 0.728 ± 0.078
73 | SFERLLVETIYS [ALG13 C-terminal 12 aa] | 0.5878 ± 0.0031 | 0.624 ± 0.01
74 | SFLFGLYLLLHP [SPR2 C-terminal 12 aa] | 0.4995 ± 0.0033 | 0.484 ± 0.014
75 | SFSDLTLHAIEY [BER1 C-terminal 12 aa] | 0.724 ± 0.031 | 0.69 ± 0.019
76 | SFTDVLGQEQFI [YLR252W C-terminal 12 aa] | 0.7269 ± 0.0054 | 0.699 ± 0.031
77 | SGKFNGKKKSRR [FAF1 C-terminal 12 aa] | 0.693 ± 0.029 | 0.666 ± 0.018
78 | SHMILYQQQECY [YER181C C-terminal 12 aa] | 0.451 ± 0.0097 | 0.46 ± 0.011
79 | SHPSFKQLLIQK [MLO1 C-terminal 12 aa] | 0.677 ± 0.031 | 0.73 ± 0.025
80 | SIFSYCIIYFIS [YDR524C-A C-terminal 12 aa] | 0.222 ± 0.013 | 0.111 ± 0.02
81 | SIICIETNKAIR [HPM1 C-terminal 12 aa] | 0.705 ± 0.016 | 0.757 ± 0.099
82 | SIIFLLLSYLLF [SAG1 C-terminal 12 aa] | 0.392 ± 0.042 | 0.381 ± 0.0067

From the supplement of paper PMC10724198
